Measured values reported in paper PMC314469, “Protein Interaction Networks by Proteome Peptide Scanning” (PLoS Biology, 2004).

T1: Boi1 SH3 (BOI1_YEAST), P38041
T1 chain: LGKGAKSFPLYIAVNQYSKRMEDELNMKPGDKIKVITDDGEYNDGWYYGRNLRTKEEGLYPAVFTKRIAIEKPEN

T2: Boi2 SH3 (BOI2_YEAST), P39969
T2 chain: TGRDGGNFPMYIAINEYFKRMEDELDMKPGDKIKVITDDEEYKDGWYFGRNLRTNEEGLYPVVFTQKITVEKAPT

T3: Myo5 SH3 (MYO5_YEAST), Q04439
T3 chain: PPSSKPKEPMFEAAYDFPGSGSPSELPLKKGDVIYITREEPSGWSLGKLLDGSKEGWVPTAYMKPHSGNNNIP

T4: Rvs167 SH3 (RV167_YEAST), P39743
T4 chain: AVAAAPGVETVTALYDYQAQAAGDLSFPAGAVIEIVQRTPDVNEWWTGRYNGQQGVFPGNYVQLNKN

T5: Yfr024 SH3 (LSB3_YEAST), P43603
T5 chain: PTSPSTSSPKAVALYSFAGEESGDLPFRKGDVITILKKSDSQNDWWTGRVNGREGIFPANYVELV

T6: Yhr016c SH3 (YSC84_YEAST), P32793
T6 chain: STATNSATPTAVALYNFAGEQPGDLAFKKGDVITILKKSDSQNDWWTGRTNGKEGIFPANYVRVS


Assays:
Assay in all cases: SPOT array
[1] = target: T1, Boi1 SH3 (BOI1_YEAST), P38041
[2] = target: T2, Boi2 SH3 (BOI2_YEAST), P39969
[3] = target: T3, Myo5 SH3 (MYO5_YEAST), Q04439
[4] = target: T4, Rvs167 SH3 (RV167_YEAST), P39743
[5] = target: Sho1 SH3 (SHO1_YEAST), P40073
[6] = target: T5, Yfr024 SH3 (LSB3_YEAST), P43603
[7] = target: T6, Yhr016c SH3 (YSC84_YEAST), P32793

Sho1 SH3 (SHO1_YEAST), P40073, sequence (P40073 295-366): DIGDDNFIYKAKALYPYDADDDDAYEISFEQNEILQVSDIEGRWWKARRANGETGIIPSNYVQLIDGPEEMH

normalised SPOT signal, Boehringer light units (BLU); mean over the file's lines of this peptide [1] | normalised SPOT signal, Boehringer light units (BLU); mean over the file's lines of this peptide [2] | normalised SPOT signal, Boehringer light units (BLU); mean over the file's lines of this peptide [3] | normalised SPOT signal, Boehringer light units (BLU); mean over the file's lines of this peptide [4] | normalised SPOT signal, Boehringer light units (BLU); mean over the file's lines of this peptide [5] | normalised SPOT signal, Boehringer light units (BLU); mean over the file's lines of this peptide [6] | normalised SPOT signal, Boehringer light units (BLU); mean over the file's lines of this peptide [7] | Binder
426 | 5.3 | 71.3 | 100 | 47.5 | 81.6 | 24.7 | GFLSKKVPNTPVVV [YNL094W 196-209]
447 | 4.6 | 105 | 10.9 | 62.8 | 1020 | 152 | GLNLKWEPSTPQRN [YCR102C 154-167]
61.5 | 14.2 | 10300 | 49.6 | 28.3 | 62 | 15.8 | GNNSRNIPPPPPPP [YMR089C 148-161]
136 | 1.5 | 391 | 57.5 | 15.1 | 178 | 15.9 | GIKVKRIPYSPKSI [YMR309C 639-652]
2030 | 6.1 | 164 | 73 | 62.6 | 1010 | 342 | GLDLKWEPSTPQRK [YLR460C 162-175]
116 | 126 | 209 | 5260 | 60.9 | 2380 | 302 | GLVLRSTPVIPDMK [YPR019W 330-343]
1200 | 9.3 | 728 | 111 | 47.2 | 697 | 140 | GQQKRFSPSLPSAV [YKL088W 110-123]
702 | 6.1 | 1040 | 176 | 198 | 947 | 69.5 | GRHLKNIPRIPIFS [YLR106C 2506-2519]
88.7 | 18.7 | 178 | 240 | 5160 | 180 | 49.7 | GFQDRSLPHFPKNS [YOR116C 826-839]
2160 | 4.7 | 218 | 3.1 | 36.4 | 29.4 | 24.5 | GKDHRLAPNGPGMH [YDR333C 253-266]
517 | 23.1 | 789 | 31.7 | 4690 | 594 | 47.5 | GHKKKNLPKFPKNK [YDL051W 238-251]
370 | 119 | 820 | 1120 | 44.9 | 440 | 106 | GRSLRKRPTSPSIS [YJR059W 48-61]
15 | 21 | 100 | 47.7 | 43.8 | 68.7 | 37.9 | GQIDRDKPSEPERT [YJL184W 45-58]
64.2 | 153 | 645 | 1050 | 148 | 1990 | 984 | GKMVKWGPLRPFLS [YOL072W 279-292]
69.6 | 53.5 | 236 | 248 | 62.2 | 662 | 197 | GIMIKAKPSSPYTY [YLR260W 30-43]
118 | 40 | 287 | 275 | 63.1 | 606 | 41.6 | GLMSKLGPNLPASI [YLR092W 403-416]
